Results published in the supplement of paper PMC10126150.
± gives the standard deviation of the averaged measurements.

Test system: ATP
Test: switch fluorescence ratio, 500 uM ATP over buffer (Cy3 cluster intensity, sum of 5 cycles each) (fold (ratio)); higher = stronger signal-on switching upon ATP binding; sequences stand for … in TCGTCGGCAGCGTCAGATGTGTATAAGAGACAGTTTTTTTTTTTTTTTTTTTTTTTTT…TC
Settings: aptamer strand: ATP DNA aptamer (quencher-CACCTGGGGGAGTATTGCGGAGGAAGG + anchor), 100 nM annealed; ATP concentration: 500 uM
Procedure, shortened: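 Per cluster, summed Cy3 intensity from the target cycles was divided by that from the buffer cycles to give the fluorescence ratio, then averaged per switch-domain sequence. Clusters outside 100-1000 RFU were excluded. The Cy3-labelled switching-strand clusters, on a modified Illumina MiSeq flow-cell, were annealed to 100 nM quencher-labelled ATP aptamer and imaged in selection buffer, then after 15 min with 500 uM ATP at 22 °C, for five cycles with NaOH stripping and re-annealing between them.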
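Also: ATP exposure 15 min at 22 °C before imaging.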

## TTTAGATGAG
  switch fluorescence ratio: 0.986 ± 0.053

## TTTAGATGGA
  switch fluorescence ratio: 0.975 ± 0.021

## TTTAGATTGG
  switch fluorescence ratio: 0.9945 ± 0.0086

## TTTAGCAATG
  switch fluorescence ratio: 1.64 ± 0.34

## TTTAGCAGAG
  switch fluorescence ratio: 1.16 ± 0.28

## TTTAGCCTTT
  switch fluorescence ratio: 1.06 ± 0.11

## TTTAGCTGT
  switch fluorescence ratio: 1.1 ± 0.17

## TTTAGGCCTC
  switch fluorescence ratio: 1.01 ± 0.014

## TTTAGGCGGC
  switch fluorescence ratio: 1.03 ± 0.023

## TTTAGGCGGG
  switch fluorescence ratio: 1.05 ± 0.044

## TTTAGGGA
  switch fluorescence ratio: 0.973 ± 0.033

## TTTAGGGATG
  switch fluorescence ratio: 0.989 ± 0.0088

## TTTAGGGGAA
  switch fluorescence ratio: 1.02 ± 0.003

## TTTAGGTAGA
  switch fluorescence ratio: 1.02 ± 0.014

## TTTAGGTATT
  switch fluorescence ratio: 0.9598 ± 0.0042

## TTTAGGTTCG
  switch fluorescence ratio: 0.972 ± 0.028

## TTTAGGTTGA
  switch fluorescence ratio: 0.9957 ± 0.0012

## TTTAGTCGTA
  switch fluorescence ratio: 1.01 ± 0.021

## TTTAGTGAGG
  switch fluorescence ratio: 0.974 ± 0.03

## TTTAGTTTGC
  switch fluorescence ratio: 0.992 ± 0.024

## TTTATAAAAC
  switch fluorescence ratio: 1.01 ± 0.051

## TTTATAACAG
  switch fluorescence ratio: 0.982 ± 0.021

## TTTATAACGG
  switch fluorescence ratio: 0.988 ± 0.038

## TTTATAAGGA
  switch fluorescence ratio: 0.997 ± 0.037

## TTTATAAGGC
  switch fluorescence ratio: 0.983 ± 0.061

## TTTATAATAG
  switch fluorescence ratio: 0.991 ± 0.025

## TTTATAATAT
  switch fluorescence ratio: 1.03 ± 0.015

## TTTATACCGT
  switch fluorescence ratio: 1.026 ± 0.0028

## TTTATACTGT
  switch fluorescence ratio: 1.03 ± 0.024

## TTTATAGGTT
  switch fluorescence ratio: 1.02 ± 0.069

## TTTATATGTA
  switch fluorescence ratio: 1.01 ± 0.022

## TTTATCAAAA
  switch fluorescence ratio: 0.993 ± 0.012

## TTTATCATAA
  switch fluorescence ratio: 0.958 ± 0.017

## TTTATCCGGT
  switch fluorescence ratio: 1.01 ± 0.042

## TTTATCCGTC
  switch fluorescence ratio: 0.96 ± 0.033

## TTTATCGGG
  switch fluorescence ratio: 1.01 ± 0.044

## TTTATCGGGC
  switch fluorescence ratio: 0.989 ± 0.019

## TTTATCTGCT
  switch fluorescence ratio: 0.981 ± 0.037

## TTTATCTTTT
  switch fluorescence ratio: 1 ± 0.028

## TTTATGAACT
  switch fluorescence ratio: 1.02 ± 0.042

## TTTATGAAGG
  switch fluorescence ratio: 1 ± 0.018

## TTTATGAGAG
  switch fluorescence ratio: 1.08 ± 0.092

## TTTATGAGTT
  switch fluorescence ratio: 0.988 ± 0.029

## TTTATGATGA
  switch fluorescence ratio: 0.971 ± 0.016

## TTTATGATGG
  switch fluorescence ratio: 1.01 ± 0.052

## TTTATGATTT
  switch fluorescence ratio: 1 ± 0.024

## TTTATGCCAG
  switch fluorescence ratio: 0.946 ± 0.053

## TTTATGCTCC
  switch fluorescence ratio: 1.086 ± 0.0031

## TTTATGGAAG
  switch fluorescence ratio: 0.988 ± 0.013

## TTTATGGACT
  switch fluorescence ratio: 1.03 ± 0.039

## TTTATGGCGG
  switch fluorescence ratio: 1.01 ± 0.027

## TTTATGGGTA
  switch fluorescence ratio: 1 ± 0.033

## TTTATGGTAA
  switch fluorescence ratio: 0.9888 ± 0.0024

## TTTATGGTAT
  switch fluorescence ratio: 0.982 ± 0.028

## TTTATGGTGT
  switch fluorescence ratio: 1.17 ± 0.21

## TTTATGGTTG
  switch fluorescence ratio: 1.02 ± 0.064

## TTTATGTGTG
  switch fluorescence ratio: 0.999 ± 0.026

## TTTATTAAAA
  switch fluorescence ratio: 0.99 ± 0.038

## TTTATTAAGT
  switch fluorescence ratio: 1.01 ± 0.033

## TTTATTACCC
  switch fluorescence ratio: 1.02 ± 0.025

## TTTATTAGAT
  switch fluorescence ratio: 0.982 ± 0.022

## TTTATTCTCT
  switch fluorescence ratio: 1.01 ± 0.019

## TTTATTGA
  switch fluorescence ratio: 0.989 ± 0.013

## TTTATTGCGT
  switch fluorescence ratio: 1.01 ± 0.048

## TTTATTGGT
  switch fluorescence ratio: 1.01 ± 0.018

## TTTATTGGTG
  switch fluorescence ratio: 1.03 ± 0.1

## TTTATTGTTA
  switch fluorescence ratio: 1.05 ± 0.068

## TTTATTGTTT
  switch fluorescence ratio: 1 ± 0.011

## TTTATTTACG
  switch fluorescence ratio: 1.033 ± 0.0082

## TTTATTTCTG
  switch fluorescence ratio: 0.959 ± 0.02

## TTTATTTCTT
  switch fluorescence ratio: 0.98163 ± 0.0001

## TTTATTTGAC
  switch fluorescence ratio: 1.03 ± 0.053

## TTTCAAAATT
  switch fluorescence ratio: 0.994 ± 0.018

## TTTCAACCTT
  switch fluorescence ratio: 1.42 ± 0.071

## TTTCAACGAT
  switch fluorescence ratio: 1 ± 0.029

## TTTCAAGGGC
  switch fluorescence ratio: 1.04 ± 0.027

## TTTCAAGTGC
  switch fluorescence ratio: 1.03 ± 0.064

## TTTCAATCTT
  switch fluorescence ratio: 1.36 ± 0.62

## TTTCAATGTC
  switch fluorescence ratio: 0.97 ± 0.11

## TTTCACAATC
  switch fluorescence ratio: 1.07 ± 0.076

## TTTCACAGTA
  switch fluorescence ratio: 1.03 ± 0.03

## TTTCACATGG
  switch fluorescence ratio: 1.052 ± 0.0044

## TTTCACTTGT
  switch fluorescence ratio: 1.034 ± 0.0018

## TTTCAGGCTT
  switch fluorescence ratio: 1.14 ± 0.13

## TTTCAGGGGG
  switch fluorescence ratio: 1.05 ± 0.091

## TTTCAGGGTC
  switch fluorescence ratio: 1.15 ± 0.19

## TTTCAGTACA
  switch fluorescence ratio: 0.988 ± 0.01

## TTTCAGTCGC
  switch fluorescence ratio: 0.9995 ± 0.0047

## TTTCAGTTGT
  switch fluorescence ratio: 1.01 ± 0.016

## TTTCATAGTC
  switch fluorescence ratio: 1 ± 0.025

## TTTCATCGTA
  switch fluorescence ratio: 0.99 ± 0.049

## TTTCATGGGG
  switch fluorescence ratio: 1.014 ± 0.0049

## TTTCATGTAT
  switch fluorescence ratio: 1.01 ± 0.012

## TTTCATGTCT
  switch fluorescence ratio: 0.992 ± 0.019

## TTTCATGTGG
  switch fluorescence ratio: 0.995 ± 0.044

## TTTCATTTTT
  switch fluorescence ratio: 0.999 ± 0.035

## TTTCCACCGA
  switch fluorescence ratio: 1.14 ± 0.16

## TTTCCATCAC
  switch fluorescence ratio: 1 ± 0.042

## TTTCCATTCT
  switch fluorescence ratio: 1 ± 0.015

## TTTCCCGGAT
  switch fluorescence ratio: 1.1 ± 0.14

## TTTCCCGGTG
  switch fluorescence ratio: 2.13 ± 0.039

## TTTCCCGTAT
  switch fluorescence ratio: 1.07 ± 0.049

## TTTCCGAATG
  switch fluorescence ratio: 1.13 ± 0.026

## TTTCCGGGGG
  switch fluorescence ratio: 0.996 ± 0.022

## TTTCCGTTTC
  switch fluorescence ratio: 1.06 ± 0.04

## TTTCCTGGGC
  switch fluorescence ratio: 1.37 ± 0.61

## TTTCCTTTGA
  switch fluorescence ratio: 1.06 ± 0.07

## TTTCGAAACT
  switch fluorescence ratio: 1 ± 0.038

## TTTCGAACGG
  switch fluorescence ratio: 1.03 ± 0.028

## TTTCGAATAA
  switch fluorescence ratio: 0.986 ± 0.0099

## TTTCGACTTT
  switch fluorescence ratio: 1 ± 0.038

## TTTCGAGGAA
  switch fluorescence ratio: 1.03 ± 0.019

## TTTCGAGTTT
  switch fluorescence ratio: 0.983 ± 0.012

## TTTCGATATT
  switch fluorescence ratio: 0.989 ± 0.019

## TTTCGATTGT
  switch fluorescence ratio: 0.988 ± 0.024

## TTTCGCACTG
  switch fluorescence ratio: 1.1 ± 0.018

## TTTCGCGGGC
  switch fluorescence ratio: 1.94 ± 0.53

## TTTCGCGGTT
  switch fluorescence ratio: 1.02 ± 0.043

## TTTCGCGTGG
  switch fluorescence ratio: 0.971 ± 0.028

## TTTCGGAGA
  switch fluorescence ratio: 1.11 ± 0.17

## TTTCGGATGT
  switch fluorescence ratio: 0.984 ± 0.04

## TTTCGGATTT
  switch fluorescence ratio: 0.983 ± 0.012

## TTTCGGCCAG
  switch fluorescence ratio: 1.13 ± 0.17

## TTTCGGCTAT
  switch fluorescence ratio: 1.12 ± 0.15

## TTTCGGGAAT
  switch fluorescence ratio: 1.08 ± 0.11

## TTTCGGGCAT
  switch fluorescence ratio: 1.19 ± 0.31

## TTTCGGGGGT
  switch fluorescence ratio: 1.07 ± 0.25

## TTTCGGTATT
  switch fluorescence ratio: 1.02 ± 0.02

## TTTCGGTCGG
  switch fluorescence ratio: 1.04 ± 0.046

## TTTCGGTTGC
  switch fluorescence ratio: 1.07 ± 0.11

## TTTCGTATCG
  switch fluorescence ratio: 1.01 ± 0.021

## TTTCGTATGG
  switch fluorescence ratio: 1 ± 0.057

## TTTCGTGAAA
  switch fluorescence ratio: 0.9975 ± 0.0019

## TTTCGTGTGG
  switch fluorescence ratio: 1.01 ± 0.086

## TTTCGTGTTG
  switch fluorescence ratio: 1.01 ± 0.017

## TTTCGTGTTT
  switch fluorescence ratio: 0.998 ± 0.028

## TTTCGTTAAC
  switch fluorescence ratio: 1.06 ± 0.028

## TTTCTAGACC
  switch fluorescence ratio: 1.1 ± 0.12

## TTTCTAGGGG
  switch fluorescence ratio: 1.01 ± 0.028

## TTTCTAGGTT
  switch fluorescence ratio: 1 ± 0.041

## TTTCTAGTCG
  switch fluorescence ratio: 0.971 ± 0.019

## TTTCTCATTT
  switch fluorescence ratio: 0.972 ± 0.021

## TTTCTCGGCT
  switch fluorescence ratio: 1 ± 0.035

## TTTCTCGTAC
  switch fluorescence ratio: 1.11 ± 0.012

## TTTCTCTGAT
  switch fluorescence ratio: 0.9813 ± 0.0042

## TTTCTCTTAG
  switch fluorescence ratio: 0.9889 ± 0.0072

## TTTCTGAGCT
  switch fluorescence ratio: 1.08 ± 0.068

## TTTCTGCTTT
  switch fluorescence ratio: 1.04 ± 0.057

## TTTCTGGCTA
  switch fluorescence ratio: 1.08 ± 0.053

## TTTCTGGGGA
  switch fluorescence ratio: 0.991 ± 0.034

## TTTCTGGGGT
  switch fluorescence ratio: 1.01 ± 0.054

## TTTCTGGGTG
  switch fluorescence ratio: 1.13 ± 0.038

## TTTCTGGTTT
  switch fluorescence ratio: 1 ± 0.016

## TTTCTGTAAT
  switch fluorescence ratio: 1.05 ± 0.03

## TTTCTGTGCT
  switch fluorescence ratio: 0.97009 ± 7e-05

## TTTCTTCAAA
  switch fluorescence ratio: 0.997 ± 0.02

## TTTCTTCAGC
  switch fluorescence ratio: 1.21 ± 0.19
